Data set [1] has as its target T1, IMP1 KH1KH2DD (Homo sapiens, UniProt Q9NZI8 194-369, K294D;E295D). Briefly: ITC; 10 mM sodium phosphate pH 7.4, 50 mM NaCl; ITC 25 C with 2 mM TCEP; BLI 30 C with 0.5 mM TCEP and 0.5 mg/ml BSA; NMR 0.5 mM TCEP; RNAsin 40-100 u/ml. Particulars: protein: recombinant; tags: 6xHis-GST removed by TEV.
Data set [2] concerns the target T1, IMP1 KH1KH2DD. The data set is described as follows: BLI; 10 mM sodium phosphate pH 7.4, 50 mM NaCl; ITC 25 C with 2 mM TCEP; BLI 30 C with 0.5 mM TCEP and 0.5 mg/ml BSA; NMR 0.5 mM TCEP; RNAsin 40-100 u/ml. Particulars: protein: recombinant; tags: 6xHis-GST removed by TEV; label: 5'-biotin.
A further data set deals with IMP1 KH1KH2 wild type (Homo sapiens, UniProt Q9NZI8 194-369). The data set is described as above. Particulars: protein: recombinant; tags: 6xHis-GST removed by TEV; label: 5'-biotin.
Chain of IMP1 KH1KH2 wild type (Q9NZI8 194-369): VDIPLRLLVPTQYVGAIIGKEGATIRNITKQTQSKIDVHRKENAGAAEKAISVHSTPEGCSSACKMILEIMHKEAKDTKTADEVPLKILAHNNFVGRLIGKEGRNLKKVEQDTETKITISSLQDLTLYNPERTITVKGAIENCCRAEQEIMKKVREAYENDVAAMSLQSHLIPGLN
The next data set deals with IMP1 KH1DDKH2 (Homo sapiens, UniProt Q9NZI8 194-369, K213D;E214D). Briefly: ITC; 10 mM sodium phosphate pH 7.4, 50 mM NaCl; ITC 25 C with 2 mM TCEP; BLI 30 C with 0.5 mM TCEP and 0.5 mg/ml BSA; NMR 0.5 mM TCEP; RNAsin 40-100 u/ml. Particulars: protein: recombinant; tags: 6xHis-GST removed by TEV. (ITC needs no label: the signal is the heat of the interaction.)
Chain of IMP1 KH1DDKH2 (Q9NZI8 194-369 K213D/E214D): as the sequence (Q9NZI8 194-369) above, with K20D, E21D counted along it

In PMC6486635, “IMP1 KH1 and KH2 domains create a structural platform with unique RNA recognition and re-modelling properties” one finds binding result and Kd data, which are given here for eleven molecules.

T1 sequence (Q9NZI8 194-369 K294D/E295D): as the sequence (Q9NZI8 194-369) above, with K101D, E102D counted along it

Regarding UCCCU (ssRNA), the binding result in the data set with IMP1 KH1KH2DD [1] was “no binding”.

As a reminder, the Kd is the constant that tells how readily two partners part at equilibrium. With UCUGU (ssRNA), the Kd with IMP1 KH1KH2DD [1] is 2600 ± 80 nM.

For UCAGU (ssRNA), the Kd with IMP1 KH1KH2DD [1] stood at 1000 ± 30 nM.

As for CACAGCAUACAUCCUGUCCGUC (ssRNA) [MYCRNA], the Kd turned out to be 1760 ± 200 nM in the data set with IMP1 KH1KH2DD [2] and 46 ± 8 nM with IMP1 KH1KH2 wild type.

In the case of UCCGC (ssRNA), the Kd with IMP1 KH1KH2DD [1] came out at 800 ± 40 nM.

For the molecule UUCGU (ssRNA), in the data set with IMP1 KH1KH2DD [1], the Kd was determined as 25000 ± 2000 nM.

On to UCCGU (ssRNA), for which the Kd in the data set with IMP1 KH1KH2DD [1] came to 500 ± 10 nM.

Consider UACGU (ssRNA), for which the Kd in the data set with IMP1 KH1KH2DD [1] was found to be 25000 ± 1000 nM.

Regarding UCCCG (ssRNA), in the data set with IMP1 KH1DDKH2, the Kd worked out at 100000 ± 4000 nM.

As to UGCGU (ssRNA), in the data set with IMP1 KH1KH2DD [1], the Kd was determined as 26000 ± 2000 nM.

For the molecule UUCCG (ssRNA), the Kd with IMP1 KH1DDKH2 was 124000 ± 15000 nM.
